{"source": "paper PMC12079263", "target": "Rab11 (1–173, Q70L) with 6 × His, bound to GTP-γ-S (UniProt P62491)", "assay": "SPR"}
{"substance": "p14^1–69 protein (p14 FAST protein of reptilian reovirus, residues 1-69) reconstituted into bicelles (domain or fragment)", "values": [{"measurement": "Kd", "result": 2130, "unit": "nM"}]}
